Measurements taken from patent publication US20260275319A1 (MAX PLANCK GESELLSCHAFT ZUR F RDERUNG DER WISSENSCHAFTEN E V, published 2026).
Primed or numbered codes have the meaning given here. Ends that are not written are not given here. FITC′ = fluorescein isothiocyanate label; Ahx = NCCCCCC(=O)O

B4: M. jannaschii Adriase S1A mutant with C-terminal His-tag (enzyme)
chain: ALIICYYGKNGAVIGGDRRQIFFRGSEENRKILEEKLYSGEIKSEEELYKLAEKLNIKIIIEDDREKVRKISDSVVCGEVRSLGIDAKRRRVYATKGKCAIVDILNDTVTNQTIKEGFGIVVLGNRFLKKKAEEELKRTAKLFPMMPIQQIEDAIKEIFEKLKWHPTVSKEYDIYSVNKYEKNFEEVIKKDIESLFKYREQLRKQLIDFGKVMSIVNKIVKNGEIGVIKDGKLHLYDDYIAIDKIDPNPKVFKVVDVEGNFKDGDIVVIENGDMKIKGTNEKVTTKYIIIHKGSHHHHHH
notes: The entry is the S1A mutant itself
B5: (10)KDPGA(10) peptide, M. jannaschii MtrA-derived, C-terminal FITC (peptide)
peptide: ITQAIKECLSKDPGAIDEDPFIIEL-{K(FITC)}
B6: (0)KDPGA(10) peptide, M. jannaschii MtrA-derived, C-terminal FITC (peptide)
peptide: KDPGAIDEDPFIIEL-{K(FITC)}
notes: Synthetic peptide (Genscript)
B8: (5)KDPGA(10) peptide, M. jannaschii MtrA-derived, C-terminal FITC (peptide)
peptide: KECLSKDPGAIDEDPFIIEL-{K(FITC)}
notes: Synthetic peptide (Genscript); also called (5)KDPGA(10F)
B9: M. jannaschii MtrA^Δ194-245 (enzyme)
chain: MHHHHHHGSMVMSMANKREPAPGWPIVSGEYVVGNPESCVGVVTLGSHGLEQACIDAGAAIAGPCHTENLGIEKVVANYISNPNIRFMILCGSEVQGHITGQCFKALWENGIGDDGGIIGAKGAIPFLENVNKEAVERFRRQIVEVVDLIDCEDIGKITQAIKECLSKDPGAIDEDPFIIELEGGKGGGEEEEGVIKPITPE
notes: For MST it was labelled with NT-647-NHS; also called MJ_0851
B10: (15)KDPGA(10) peptide, M. jannaschii MtrA-derived, N-terminal FITC-Ahx (peptide)
peptide: {FITC′-Ahx}-EDIGKITQAIKECLSKDPGAIDEDPFIIEL
notes: Synthetic peptide (Genscript); also called (F15)KDPGA(10)

How the values were obtained:
[1] = target: T1, MtrH of M. mazei (subunit of the MtrA-MtrH complex), from whole cell extract (Methanosarcina mazei); test: pulldown from M. mazei whole cell extract with Strep-tagged Adriase, LC-MS/MS (Experiment 2.1)
T1 sequence (P80650 1-316, looked up): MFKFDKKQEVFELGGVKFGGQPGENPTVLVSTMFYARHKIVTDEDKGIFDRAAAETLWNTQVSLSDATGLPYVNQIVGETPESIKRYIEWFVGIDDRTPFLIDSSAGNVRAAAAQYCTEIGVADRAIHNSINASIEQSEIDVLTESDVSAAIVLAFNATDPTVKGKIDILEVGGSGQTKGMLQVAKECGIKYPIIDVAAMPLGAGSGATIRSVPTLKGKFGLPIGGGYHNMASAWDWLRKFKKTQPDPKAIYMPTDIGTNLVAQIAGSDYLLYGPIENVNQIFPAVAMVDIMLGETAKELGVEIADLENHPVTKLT

[2] = target: T2, MtrB of M. mazei (subunit of the MtrA-MtrH complex), from whole cell extract (Methanosarcina mazei); test: as above
T2 sequence (P80655 whole entry, looked up): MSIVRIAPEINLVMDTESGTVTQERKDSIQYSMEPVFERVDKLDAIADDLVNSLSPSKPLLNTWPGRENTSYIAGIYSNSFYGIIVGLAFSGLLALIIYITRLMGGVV

[3] = target: T3, MtrG of M. mazei (subunit of the MtrA-MtrH complex), from whole cell extract (Methanosarcina mazei); test: as above
T3 sequence (P80656 whole entry, looked up): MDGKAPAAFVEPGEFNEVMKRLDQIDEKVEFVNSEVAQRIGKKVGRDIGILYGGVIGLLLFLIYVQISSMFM

[4] = target: T4, MtrE of M. mazei (subunit of the MtrA-MtrH complex), from whole cell extract (Methanosarcina mazei); test: as above
T4 sequence (P80651 whole entry, looked up): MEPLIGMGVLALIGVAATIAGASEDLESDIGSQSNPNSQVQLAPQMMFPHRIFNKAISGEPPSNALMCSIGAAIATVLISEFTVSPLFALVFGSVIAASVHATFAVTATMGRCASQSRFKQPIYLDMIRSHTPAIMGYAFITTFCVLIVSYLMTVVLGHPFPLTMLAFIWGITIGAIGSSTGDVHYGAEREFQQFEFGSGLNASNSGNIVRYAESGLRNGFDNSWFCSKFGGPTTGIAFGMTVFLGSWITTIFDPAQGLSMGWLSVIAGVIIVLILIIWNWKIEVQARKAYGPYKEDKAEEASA

[5] = target: B9; test: size-exclusion chromatography with light scattering (SEC-MALS) of the 1:1 molar mixture
BSA = target: T5, BSA (UniProt P02769 25-607); test: pulldown on Ni-NTA beads with His6-tagged Adriase, SDS-PAGE of flow-through, washes and eluate
T5 construct: also called control protein BSA

[6] = target: T6, M. mazei Ub-(5)KDPGA(10) with N-terminal His-tag; test: SDS-PAGE time course of Adriase with Ub-(5)KDPGA(10), band of the covalent conjugate
T6 chain: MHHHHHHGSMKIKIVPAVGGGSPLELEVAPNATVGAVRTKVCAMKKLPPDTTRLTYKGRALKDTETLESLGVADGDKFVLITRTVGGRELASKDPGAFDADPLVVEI

[7] = target: B6; test: microscale thermophoresis (MST), fitted curve, peptide (0)KDPGA(10)
[8] = target: B10; test: microscale thermophoresis (MST), fitted curve, peptide (15)KDPGA(10)
[9] = target: T7, M. jannaschii MtrA^Δ174-245 with N-terminal His6-tag (Methanocaldococcus jannaschii, UniProt Q58261 1-169); test: microscale thermophoresis (MST), fitted curve, MtrA^Δ174-245
T7 sequence: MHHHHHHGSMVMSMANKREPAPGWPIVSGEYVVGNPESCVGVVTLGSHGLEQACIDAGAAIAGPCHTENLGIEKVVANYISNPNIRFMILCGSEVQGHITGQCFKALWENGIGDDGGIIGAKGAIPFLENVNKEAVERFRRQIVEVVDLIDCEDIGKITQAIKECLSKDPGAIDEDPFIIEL

[10] = target: B5; test: microscale thermophoresis (MST), fitted curve, peptide (10)KDPGA(10)
[11] = target: B8; test: microscale thermophoresis (MST), fitted curve, peptide (5)KDPGA(10)
[12] = target: B9; test: microscale thermophoresis (MST), fitted curve
[13] = target: B4; test: microscale thermophoresis (MST); table row (10)KDPGA(10)
[14] = target: B4; test: microscale thermophoresis (MST); table row (0)KDPGA(10)
[15] = target: T8, M. jannaschii Adriase with C-terminal His-tag (Methanocaldococcus jannaschii, UniProt Q57968 2-293); test: SDS-PAGE time course of the reaction in the presence of MtrA, band of the covalent conjugate
T8 construct: Active enzyme; also called unmodified Adriase; MJ_0548
T8 sequence: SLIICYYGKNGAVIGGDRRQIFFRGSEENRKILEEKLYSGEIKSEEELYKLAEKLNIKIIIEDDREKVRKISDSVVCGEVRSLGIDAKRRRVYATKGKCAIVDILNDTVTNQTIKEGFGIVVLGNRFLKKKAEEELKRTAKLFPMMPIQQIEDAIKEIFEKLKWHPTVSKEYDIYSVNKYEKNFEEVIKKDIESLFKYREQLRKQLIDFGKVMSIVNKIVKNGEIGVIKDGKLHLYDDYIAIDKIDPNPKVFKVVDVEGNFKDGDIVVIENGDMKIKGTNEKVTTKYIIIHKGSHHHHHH

[16] = target: B4; test: microscale thermophoresis (MST); table row (5)KDPGA(10)
[17] = target: B4; test: microscale thermophoresis (MST), three measurements; table row MtrA
[18] = target: B4; test: microscale thermophoresis (MST); table row (15)KDPGA(10)

T5 sequence (P02769 25-607 limits assumed): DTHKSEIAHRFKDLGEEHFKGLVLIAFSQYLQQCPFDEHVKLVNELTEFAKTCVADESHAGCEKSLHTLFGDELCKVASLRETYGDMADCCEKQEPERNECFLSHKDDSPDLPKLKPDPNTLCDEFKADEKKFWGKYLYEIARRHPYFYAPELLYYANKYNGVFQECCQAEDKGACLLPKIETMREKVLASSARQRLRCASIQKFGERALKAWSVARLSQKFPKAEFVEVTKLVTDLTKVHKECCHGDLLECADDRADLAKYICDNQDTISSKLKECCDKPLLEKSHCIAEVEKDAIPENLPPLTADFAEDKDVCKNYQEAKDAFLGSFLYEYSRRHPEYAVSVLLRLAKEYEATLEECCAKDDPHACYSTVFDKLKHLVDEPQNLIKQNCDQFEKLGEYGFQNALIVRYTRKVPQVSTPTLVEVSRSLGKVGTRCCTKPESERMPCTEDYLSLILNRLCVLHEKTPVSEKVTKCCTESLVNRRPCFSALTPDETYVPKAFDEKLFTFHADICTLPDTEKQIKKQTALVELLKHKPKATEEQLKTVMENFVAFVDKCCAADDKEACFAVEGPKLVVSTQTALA

B1: M. mazei Adriase with C-terminal Strep-tag (enzyme)
chain: TLVIAFIGKNGAVMAGDMREITFEGEKPDREKLEKELYSGSIVTDEEMQKKAEEFGVKITVADCKEKVSERNGVLVGEVSSAEGGVVKKRRLYASAGNFAIAELINTEMTLTSQGKGSNFIAFGNEFTKQVANKCFKDNWTKKSNLQDAVKILILCMETVARKTASVSKQFMIVQTASNADVLKVVEKDRNCGSWSHPQFEK
notes: also called MM_2909; Archaeal Peptide Recombinase
Intensity (mass spectrometry) [1]: 6e+07 arbitrary units | Intensity (mass spectrometry) [2]: 1.4e+06 arbitrary units | Intensity (mass spectrometry) [3]: 860000 arbitrary units | Intensity (mass spectrometry) [4]: 2.1e+06 arbitrary units

B2: M. jannaschii Adriase without NTN, with C-terminal His-tag (enzyme)
chain: MEQLRKQLIDFGKVMSIVNKIVKNGEIGVIKDGKLHLYDDYIAIDKIDPNPKVFKVVDVEGNFKDGDIVVIENGDMKIKGTNEKVTTKYIIIHKGSHHHHHH
notes: also called Adriase^ΔNTN
binding result [5]: no binding

B3: M. mazei Adriase with C-terminal His-tag (enzyme)
chain: TLVIAFIGKNGAVMAGDMREITFEGEKPDREKLEKELYSGSIVTDEEMQKKAEEFGVKITVADCKEKVSERNGVLVGEVSSAEGGVVKKRRLYASAGNFAIAELINTEMTLTSQGKGSNFIAFGNEFTKQVANKCFKDNWTKKSNLQDAVKILILCMETVARKTASVSKQFMIVQTASNADVLKVVEKDRNCGSHHHHHH
notes: Active form without start-methionine; also called M. mazei Adriase-His6; MM_2909
binding result (BSA): no binding | binding result [6]: binds

B4
EC50 (read off the curve) [7]: ~400 nM | EC50 (read off the curve) [8]: ~80 nM | EC50 (read off the curve) [9]: ~600 nM | EC50 (read off the curve) [10]: ~200 nM | EC50 (read off the curve) [11]: ~100 nM | EC50 (read off the curve) [12]: ~200 nM

B5
Kd [13]: 168 nM

B6
Kd [14]: 363 nM

B7: M. jannaschii Ub-KDPGA(10) (other)
chain: MHHHHHHGSMKIKIVPAVGGGSPLELEVAPNATVGAVRTKVCAMKKLPPDTTRLTYKGRALKDTETLESLGVADGDKFVLITRTVGGCGEKDPGAIDEDPFIIEL
notes: also called Ubiquitin fused to KDPGA(10)
binding result [15]: binds

B8
Kd [16]: 121 nM

B9
Kd [17]: 129 nM

B10
Kd [18]: 74 nM
